The values that follow are results of earlier work, collected in US7708978B2, “Targeted hydrophilic polymer, binders with interferon and medical composite comprising above binders” (Beijing Jiankai Technology Co., Ltd., priority 2002, dated 2010).

For this data set the following is noted: in vivo.

As to interferon α, the circulation half-life is 4 to 8 h.
